Results published in a protein production outcome set (Wang et al. 2014).

Assay: label from the status in PepcDB records
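Also: failed if final PepcDB status was selected cloned or expressed and not failed if soluble or beyond.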

| Sequence | protein production |
| --- | --- |
| MTFGSLFRNQTRTVVKGHIFNLPNSLSILRILLIPWFIYYLDAGQTHIALIIMVVALLSDWFDGQMARWTNEVSDMGKILDPLADKLCLASVALYYLWKGELPVWFVVFVVFRDLVIFLGAAWIRHRHNVLTTSLWPGKWAVGFVSMMFISMVWPLPVFRQWPVKEFFMYLSAATLFYSFVEYCIRFYKIQKGAEFKA | failed |
| MMKIIAFVGMPASGKSEASRIAAEMGIPVIIMGDVIRKEVLKRGLEPNDSNTGMVATDLRKHEGMGAVARRCISQIRETGSELVVVDGVRGIAEVECFRKEFGKGFILISIYAPIEVRFSRVQKRGRSDDMNSIEGLRHRDERELSWGMGEAIDASNVEIENNFTLETFRKDVRDVLSNYLEADLEK | not failed |
| MRPLISICMIVKNEAHILRQSLASFRKFTEEIIIVDTGSTDDTKEIAKEFTDFVYDFEWTGNFSDARNFAAKHATGKWILAIDADECLEEESYRKLEKQLKSPIEPIQMAQIISFTGEKGRVTTTNQMARVYKNDGTICFRGVIHEQLEAVDKHAIEAGLAEVKIYHYGYMSEIVEKQDKSDRNLRLLEKEVKNNKNSGFVHFNIGQEMNRLGNKKEALKEFSEAFRLRDNNHYIWAKLSAYHISELLEQEKRYDESLAIIEEAKVIWPNVPEFPLKKANILYVNHQLEDAKEIYKSLLENTAIDYQPIVLYEATNFMPHKMLGTIYLEEKDYTRAMTHFSKAYAENSSDYGVMFQMIMLLSKFHQPKEIFAFMERHNFISSTETGLRLLSMTTQQGYAELSELIVQSLTDVYPPVAEATEVKIATIRNVFPVISESAILFGIKEELIDAADLCLWHYENPQLPIERVMKNSDVGEIYDFIFENGPKISKKRYLFVLERAIALGKGEFADYLLALRNVYHDSINSHIADLFFQYDFADIALDFYNIVDADEVTKQGYINLINYLVDADVLDEALAIAERGIDNFSTDFRFYLWAIKIDTENRANRISEAMDEFPNNRYLAKLLDEVTMLQDTVTNNR | failed |
| MNFLPPTPPPPDPVGWKLPRGSLARHLVLRLMPPLLLLVLLDLAATWVITHKIDMSIWMLEDFFWLMVVGQIVLIALFTGVIIRGVRSGLRSVNHLAEEIRQRSIDDMQPMEVAGLPAEIAPLVTHINDLLGRLDASLAAQRRFIGHAAHQLRTPLSGLRLESELMLARPLPEDVRMRAERIKAVSDRMIRLGQQLLVMARADPDARPQDRFIRLDLCEWVRASGAEWIPRVRAAQAEIDLVAPEQPVWIDGDPLLLDEMLGNLIDNALRYGKPRGRICLTIDVNPPALIIEDDGPGISPQERDSVFEAFYRAPDAKAGGSGLGLAIVREIAHAHGAWWKLSSRPEYAGTRLSVVFPGPRIGTQLTRQERAS | failed |
| MTEEQVQHWFDMFGSLGYIAGFLLPFIEAFIPILPIIVFIIVNVNAFGWFIGTVLAWAGTVAGSYIVFLFFRRLNNTKYMKKVQQRTSVQRLIHFIDRRGVIPIFILMCFPFTPSALVNIVASMSHIKAHAYLTVLIISKFIMIGLVGWLGNDITTLFSNPTRLITIVVVIIIVWFVGRKIEKHFMSSSEE | failed |
| MMIDPELRPAFLPAGKLRAAINLGNPILAGTDAAGQAVGVSVDLAREFARRLNAGIELRVFDTAGQSVDAVTREEADIGFFAIDPARGAGIAFTGPYVLIEGAYLVRDDSPLQANEDVDRAGKRVTVGKGSAYDLHLTRALQHAEIVRAASSQAVVDTFLARRLDVAAGVKQQLQADARRVGGVRLLPGRFMVIRQAMGLPKARGDAAAACLDAFVESMKGNGFVAQALARHGIQGASVAPPGRDG | failed |
| MMRRYFYQFSQKMITSVWWLLFVPMLLFAVMSPNIILGDNATFGTSTTLLTTGLIIVIVAVLIMNYAYPRVHRGLYRLLITKQLRTAGVLLALVFIGQLVFVTFVHPVSGFDAGMLHYAATSAKHVQEVGVTAYYSLNQNNMPIMLFMHWLSEVTGQTSWQFFDYVTLFFVDLSAAFNLMSVFVVRRSALGIAMYLHAGWLAVFPSIIMPYTDAWGLPLVSFFMLCYFVMSQTKRPPLLRVAAAVGFGVSVTLTYFMKPSSIIPVIAIAIISFLARLRSRQGSQTTMIFVTVAMAILMLESAGLTYHYTNQAIQNQTYIKIDKSRSIPAIHFMAMGVYGSGGYSEKQAIQMAVLPTKAQKTAYSIKMLKRQLKKLGPWGYLEFLVKKQRNNTADGTFGWLKEGNFFRENQKPSNQGFSNWLKNFIYLYGRHIADFRFVAQLWWLVLLVIIALGFGPRWQLIQLLRLAMIGGFIFLLLFEGGRSRYLIQYLPCLLLLGAFSFERAVANIRRVRDWYQRKLRAAIAADESE | failed |
| VHVLIRPLQAQDREREKAFIERLSPESRHFRFLCQLREPGEAMLDQLMKVDQDRQAAYVALAHVDGELQEVGISRYATASGKDECECAVTVMDSWQHHGLGRLLLKHLIDHARAKGLRQMYSVDAAANQAMRELAKAAGFTT | failed |
| MIEPSKITVEQWLNRWLTDYAKPHLRQSTWESYETVLRLHVIPTLGSIPLKKLQPADIQRLYASKLESGLSPTRVRYIHVVLHEAMSQARESGLLLQNPTEAAKPPRHPKKKVQPLEHHHHHH | not failed |
| MSLEPSQIMPLSVLIAEDNDICRLVAAKALEKCTNDITVVTNGLQALQAYQNRQFDVIIMDIQMPVMDGLEAVSEIRNYERTHNTKRASIIAITADTIDDDRPGAELDEYVSKPLNPNQLRDVVLTCHSEGAEGHHHHHH | not failed |
| MASEEGQVIACHTVETWNEQLQKANESKTLVVVDFTASWCGPCRFIAPFFADLAKKLPNVLFLKVDTDELKSVASDWAIQAMPTFMFLKEGKILDKVVGAKKDELQSTIAKHLA | failed |
| MLEEYRKHVAERAAEGIAPKPLDANQMAALVELLKNPPAGEEEFLLDLLTNRVPPGVDEAAYVKAGFLAAIAKGEAKSPLLTPEKAIELLGTMQGGYNIHPLIDALDDAKLAPIAAKALSHTLLMFDNFYDVEEKAKAGNEYAKQVMQSWADAEWFLNRPALAEKLTVTVFKVTGETNTDDLSPAPDAWSRPDIPLHALAMLKNAREGIEPDQPGVVGPIKQIEALQQKGFPLAYVGDVVGTGSSRKSATNSVLWFMGDDIPHVPNKRGGGLCLGGKIAPIFFNTMEDAGALPIEVDVSNLNMGDVIDVYPYKGEVRNHETGELLATFELKTDVLIDEVRAGGRIPLIIGRGLTTKAREALGLPHSDVFRQAKDVAESDRGFSLAQKMVGRACGVKGIRPGAYCEPKMTSVGSQDTTGPMTRDELKDLACLGFSADLVMQSFCHTAAYPKPVDVNTHHTLPDFIMNRGGVSLRPGDGVIHSWLNRMLLPDTVGTGGDSHTRFPIGISFPAGSGLVAFAAATGVMPLDMPESVLVRFKGKMQPGITLRDLVHAIPLYAIKQGLLTVEKKGKKNIFSGRILEIEGLPDLKVEQAFELTDASAERSAAGCTIKLNKEPIIEYLNSNIVLLKWMIAEGYGDRRTLERRIQGMEKWLANPELLEADADAEYAAVIDIDLADIKEPILCAPNDPDDARPLSAVQGEKIDEVFIGSCMTNIGHFRAAGKLLDAHKGQLPTRLWVAPPTRMDAAQLTEEGYYSVFGKSGARIEIPGCSLCMGNQARVADGATVVSTSTRNFPNRLGTGANVFLASAELAAVAALIGKLPTPEEYQTYVAQVDKTAVDTYRYLNFNQLSQYTEKADGVIFQTAV | not failed |
| GNIEAALFGLIALYAQTKVIDSIIYGGDAGSMATIVTGNPDGIAAKVIYELDRTATVLPAKGAYSRKDTSVLLCTVRKSQFVKLKRIVYEEDPDAFVMVTETSEVLGLGFRAFKDSL | failed |
| MKTAKRRAFAFATFAIAGLAACENTSSPSLPKDQVMAPGVDLRAAAKQDSSEAVEAGHRMIAAGEYELALRAFNRAALSRGALDAEILSGLGTANLGLGRLGQAEELLRRAVRDDAAQPVDYNNLGVLLMEQGNTAEALQYFRRAFALSNGENIAIRDNLRLALAKTENSATLEAEKSSEYKLVRRGNSDFVIRPTP | failed |
| MISASWKSAGKTTVSLGLLRLLAENGVPVVSFKKGPDYIDPMWHRVASSGECYNLDTWMMGEAACRDTFIRNCARRPGSIALIEGNHGLHDGMDMAGADSSAGLAALLDAPVLLVIDSRRMNRGVAAQVLGLQAMPPKVRIAGVILNHVTSSRQESKQRAAIETFCNVPVLGAIPADSSLLLPERHLGLVTVGEASDAEAFIRVAAQQVERHCDFAAIRKLFEEASPLSHSEPREVFSPKKEATVKIGVFRDAAFCFYYPDNLDALRDAGAELVFIDTFKTTALPEIDGLYLGGGFPESFFAELSANTSLLRDMRGRIEAGIPAWAECGGLIYLCRSATWEGRQWPLASVLPIDIAYQRKPAGCGYLELESRAGSGWFPVGERVRAHEFHYSKPVAGNVDLACQFDVARGFGLTGREDGLLYRNLFASYAHFHAAANPGWAERFVGLALKFKEQGRLERD | failed |
| MKVTSVGAAMLLLIVGNLIAVLSDSLIKSVANEVPMFQFVFFRQISAVMFLLPVCLLAKQTNFMEGFKWHAVRAHVWLLGAVFMVMAISSLPLATANAIFYAAPLIMLPLAAIFFGEQLSKQSVAAAVMGFAGVLVIIRPDQIDWAAISAFVVALTLAINNLLIRKLPKNQSVMQTLLMTNLAGIPVALLLVLIEDQPWQWGAFPVAAGSSLFIMIYAATCVLAYRSIDSNKIASAEYSGLIGAVVVGFIWFGEIPDIFMAIGTVMIVVPLIWLSKRERRKQKEHAQLQAQKEHEQQQAHVA | failed |
| VPKIVDHDERRRALADAVLALIAREGISAVTTRAVAEESGWSTGVLNHYFGSRHELLLAALRRAGDIQGDRYRTILDEEGAGPIEKLRNITASILPLDERRLAMTRVFLFFYAEGAAEETARGEIAAFLARWRGVVRESVVAAQREGTVSTDLDADAVTVALVALTDGLALQAILDPVVMKAISAEDAAARCVDAAVRRTTEEAGAVGR | not failed |
| VDEKALKHITEMGFSKEASRQALMDNGNNLEAALNVLLTSNKQKPVMGPP | not failed |
| MTENNQTAPNPESLDGLSYEEAREQLVAVVGRLEAGGASLEESLALWERGEALAKRCEDWLEGARKRLATARDASSDGGTPA | failed |
| MDWEERENPKRLVKTFAFPNFREALDFANRVGALAERENHHPRLTVEWGRVTVEWWTHSAGGVTEKDREMARLTDALLQR | not failed |
| MFKKLLHSLFAGLTFMAAVAAVPAHAQEADAQTTVKTAVDDVLATIKGDSDLRSGNMQKVFQLVDQKIVPRADFKRTTQIAMGRFWSQATPEQQQQIQDGFKTLLVRTYAGALANVRNQTVSYKPFRAAADDTDVVVRSTVNNNGEPVALDYRMEKSANGWKVYDINISGLWLSETYKNQFAEVISKRGGVSGLVQFLDERNAQLAKGPAKLEHHHHHH | not failed |
| MHSMKLLVTGGMGFIGSNFIRYILEKHPDWEVINIDKLGYGSNPANLKDLEDDPRYTFVKGDVADYELVKELVRKVDGVVHLAAESHVDRSISSPEIFLHSNVIGTYTLLESIRRENPEVRFVHVSTDEVYGDILKGSFTENDRLMPSSPYSATKAASDMLVLGWTRTYNLNASITRCTNNYGPYQFPEKLIPKTIIRASLGLKIPIYGTGKNVRDWLYVEDHVRAIELVLLKGESREIYNISAGEEKTNLEVVKIILRLMGKGEELIELVEDRPGHDLRYSLDSWKITRDLKWRPKYTFDEGIKKTIDWYLKNEWWWKPLVDERILHPTPWKLKW | not failed |
| MGHHHHHHSHMVANPPASKESIDALPEILVTEDHGAVGQEMCCPICCSEYVKGEVATELPCHHYFHKPCVSIWLQKSGTCPVCRCMFPPPL | failed |
| MGISNIKQLYSKWKSLQPLKPEDLKRWNDKFKLEFNYNSNHLEGNTLTYGQTKLLLMFGETSGNASLKDYEEMKAHNVGLEMIKQEAQDKERPLTESFIRELNRTILVQDYWKNAKTPDGQDIRMQIKVGEYKSRPNSVLTATGEVFSYASPEETPAFMTSLVDWYNLEADKGILTPVELAALLHYRYIRIHPFEDGNGRIARLLVNFVLHRYGYPMIVIHSEDKSNYLNILHQCDVEAGLTPSDGANATLNDILPFVNYLSSCLIRSLTLAIKAAKGESIEEEGDFDKK | not failed |
